# Assay results reported in patent publication US20100285597.
# Substitutions are numbered along the chain they refer to.
# T1: S323A point mutant of nectin-1
# T1 chain: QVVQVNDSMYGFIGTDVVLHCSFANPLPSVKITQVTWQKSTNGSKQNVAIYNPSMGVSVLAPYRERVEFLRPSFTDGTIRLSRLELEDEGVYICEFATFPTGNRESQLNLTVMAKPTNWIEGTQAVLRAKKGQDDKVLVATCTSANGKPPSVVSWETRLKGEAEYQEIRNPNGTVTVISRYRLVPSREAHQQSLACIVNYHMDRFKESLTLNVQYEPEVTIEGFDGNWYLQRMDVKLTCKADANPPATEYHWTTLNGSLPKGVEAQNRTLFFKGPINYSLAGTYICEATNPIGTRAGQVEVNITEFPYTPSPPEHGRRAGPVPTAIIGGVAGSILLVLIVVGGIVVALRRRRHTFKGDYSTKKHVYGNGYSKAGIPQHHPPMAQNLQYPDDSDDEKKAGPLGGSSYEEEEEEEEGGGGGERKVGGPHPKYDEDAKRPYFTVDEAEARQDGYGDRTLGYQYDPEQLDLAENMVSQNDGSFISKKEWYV
# T2: T310A point mutant of nectin-1
# T2 chain: T1 chain with T283A, A296S
# T3: Y311A point mutant of nectin-1
# T3 chain: T1 chain with Y284A, A296S
# B1: BACE1 (protein)
# chain: ETDEEPEEPGRRGSFVEMVDNLRGKSGQGYYVEMTVGSPPQTLNILVDTGSSNFAVGAAPHPFLHRYYQRQLSSTYRDLRKGVYVPYTQGKWEGELGTDLVSIPHGPNVTVRANIAAITESDKFFINGSNWEGILGLAYAEIARPDDSLEPFFDSLVKQTHVPNLFSLQLCGAGFPLNQSEVLASVGGSMIIGGIDHSLYTGSLWYTPIRREWYYEVIIVRVEINGQDLKMDCKEYNYDKSIVDSGTTNLRLPKKVFEAAVKSIKAASSTEKFPDGFWLGEQLVCWQAGTTPWNIFPVISLYLMGEVTNQSFRITILPQQYLRPVEDVATSQDDCYKFAISQSSTGTVMGAVIMEGFYVVFDRARKRIGFAVSACHVHDEFRTAAVEGPFVTLDMEDCGYNIPQTDESTLMTIAYVMAAICALFMLPLCLMVCQWRCLRCLRQQHDDFADDISLLK
# Key:
# [1] = biological target: T1, S323A point mutant of nectin-1
# [2] = biological target: T2, T310A point mutant of nectin-1
# [3] = biological target: T3, Y311A point mutant of nectin-1
protein,measurement,setting,value
B1,production of CTF bands (Western blot of HEK 293 lysates),[1],Co-expression with BACE1 substantially increased production of CTF bands for the nectin-1 polypeptide mutant S323A
same,production of CTF bands (Western blot of HEK 293 lysates),[2],"somewhat less effectively increased production in the other two mutants, T310A and Y311A"
same,production of CTF bands (Western blot of HEK 293 lysates),[3],"somewhat less effectively increased production in the other two mutants, T310A and Y311A"
